Source: paper PMC6547453

Assays:
[1] = molecular target: RspWYL1 double mutant I108D/I109D (Ruminococcus sp.); test: SEC; Superdex 200 gel filtration column, compared with a protein molecular mass standard mixture
[2] = molecular target: RspWYL1 double mutant Y386A/N387A (Ruminococcus sp.); test: as above
[3] = molecular target: full-length RspWYL1 (Ruminococcus sp. WYL1, amino acids 1–392) (Ruminococcus sp.); test: as above
[4] = molecular target: full-length RspWYL1 (Ruminococcus sp. WYL1, amino acids 1–392) (Ruminococcus sp.); test: SEC-MALS; HPLC SEC-MALS, AdvanceBio SEC 300A column, 50 mM Tris-HCl pH 7.5, 150 mM NaCl, 1 mM TCEP; RspWYL1 loaded at 10 mg/ml

A stoichiometry N [1] of 2 was found for “RspWYL1 double mutant I108D/I109D (natural protein)” in this work.
A stoichiometry N [2] of 2 was found for “RspWYL1 double mutant Y386A/N387A (natural protein)” in this work.
A stoichiometry N [3] of 2 and a stoichiometry N [4] of 2 were found for “full-length RspWYL1 (Ruminococcus sp. WYL1, amino acids 1–392) (natural protein)” in this work.
